The text below walks through data of US20220389066A1, “POLYPEPTIDES” (Affibody AB, priority 2019, published 2022).

Experiment [1] addresses T1, ZH 29 as periplasmic ABD fusion AQHDEALE-[ZH 29]-VDYV-[ABD]-YVPG (Streptococcus strain G148, UniProt P19909 254-299, limits assumed).
T1 construct: domain: GA3
In words: SPR (Biacore 2000) screening; periplasmic Z-ABD captured on anti-ABD antibody, 200 nM boxA(disulfide); 1:1 model; average of 3 measurements. On the procedure:
(§1) Biacore screening of Z variants: The binding of Z variants to boxA(disulfide) was analyzed in an affinity screening using a Biacore 2000 instrument. A polyclonal goat anti-ABD antibody (goat anti-ABD) was immobilized on CM5 chip surfaces basically as described for other proteins in Example 3. For the kinetic screening, analytes were injected in two steps. First, a Z-ABD (where ABD is GA3) periplasmic extract was injected over the surface at 5 μl/min for 10 min. As a second step, 200 nM boxA(disulfide) was injected at 20 μl/min for 5 min, followed by 10 min of dissociation in running buffer HBS-EP. Glycine-HCl pH 2.0 (GE Healthcare, cat. no. BR100355) was used for regeneration of the antibody surfaces between the cycles. The temperature of the assay was 25° C. Before performing the kinetic analyses, the signal from 200 nM boxA(disulfide) injected over a reference surface containing goat anti-ABD but no Z-ABD sample was subtracted from the sensorgram of Z-ABD binding to boxA(disulfide). […] A periplasmic extract of ZH 01 was included in the screening analysis for comparison. […]

For experiment [2], the target named is T2, ZH 07 as periplasmic ABD fusion AQHDEALE-[ZH 07]-VDYV-[ABD]-YVPG (Streptococcus strain G148, UniProt P19909 254-299, limits assumed).
T2 construct: domain: GA3
Briefly: SPR (Biacore 2000) screening; periplasmic Z-ABD captured on anti-ABD antibody, 200 nM boxA(disulfide); 1:1 model; average of 8 measurements. Here is the method: as §1
A general note: In SPR one partner is held on a chip, and binding of the other changes the refractive index at the surface.

The target in experiment [3] is T3, ZH 04 as periplasmic ABD fusion AQHDEALE-[ZH 04]-VDYV-[ABD]-YVPG (Streptococcus strain G148, UniProt P19909 254-299, limits assumed).
T3 construct: domain: GA3
Briefly: SPR (Biacore 2000) screening; periplasmic Z-ABD captured on anti-ABD antibody, 200 nM boxA(disulfide); 1:1 model; average of 2 measurements. On the procedure: as §1

Experiment [4] addresses T4, ZH 05 as periplasmic ABD fusion AQHDEALE-[ZH 05]-VDYV-[ABD]-YVPG (Streptococcus strain G148, UniProt P19909 254-299, limits assumed).
T4 construct: domain: GA3
In words: SPR (Biacore 2000) screening; periplasmic Z-ABD captured on anti-ABD antibody, 200 nM boxA(disulfide); 1:1 model. Here is the method:
(§2) Biacore screening of Z variants: The binding of Z variants to boxA(disulfide) was analyzed in an affinity screening using a Biacore 2000 instrument. A polyclonal goat anti-ABD antibody (goat anti-ABD) was immobilized on CM5 chip surfaces basically as described for other proteins in Example 3. For the kinetic screening, analytes were injected in two steps. First, a Z-ABD (where ABD is GA3) periplasmic extract was injected over the surface at 5 μl/min for 10 min. As a second step, 200 nM boxA(disulfide) was injected at 20 μl/min for 5 min, followed by 10 min of dissociation in running buffer HBS-EP. Glycine-HCl pH 2.0 (GE Healthcare, cat. no. BR100355) was used for regeneration of the antibody surfaces between the cycles. The temperature of the assay was 25° C. Before performing the kinetic analyses, the signal from 200 nM boxA(disulfide) injected over a reference surface containing goat anti-ABD but no Z-ABD sample was subtracted from the sensorgram of Z-ABD binding to boxA(disulfide). […] A periplasmic extract of ZH 01 was included in the screening analysis for comparison.
(§3) Biacore screening of Z variants: Seven new unique Z variants giving the highest response in ELISA-screen, ZH 04 (SEQ ID NO:4), ZH 05 (SEQ ID NO:5), ZH 06 (SEQ ID NO:6), ZH 07 (SEQ ID NO:7), ZH 08 (SEQ ID NO:8), ZH 09 (SEQ ID NO:9) and ZH 10 (SEQ ID NO:10) were submitted to a Biacore affinity screening together with ZH 01 (SEQ ID NO:1) and ZH 29 (SEQ ID NO:29; its binding motif is identical to that of ZH 01, but the sequence comprises scaffold amino acid variations V1A, D2E, Y5F, N52S and D53E). A single concentration of boxA(disulfide) was injected over each Z-ABD captured from periplasmic extracts on a sensor chip surface containing an anti-ABD antibody.

Experiment [5] addresses T5, ZH 09 as periplasmic ABD fusion AQHDEALE-[ZH 09]-VDYV-[ABD]-YVPG (Streptococcus strain G148, UniProt P19909 254-299, limits assumed).
T5 construct: domain: GA3
The experiment is described as above. On the procedure: as §2, §3

Experiment [6] addresses T6, ZH 10 as periplasmic ABD fusion AQHDEALE-[ZH 10]-VDYV-[ABD]-YVPG (Streptococcus strain G148, UniProt P19909 254-299, limits assumed).
T6 construct: domain: GA3
The experiment is described as above. On the procedure: as §2, §3

The target of experiment [7] is T7, ZH 08 as periplasmic ABD fusion AQHDEALE-[ZH 08]-VDYV-[ABD]-YVPG (Streptococcus strain G148, UniProt P19909 254-299, limits assumed).
T7 construct: domain: GA3
The experiment is described as above. Here is the method: as §2, §3

For experiment [8], the target named is T8, ZH 06 as periplasmic ABD fusion AQHDEALE-[ZH 06]-VDYV-[ABD]-YVPG (Streptococcus strain G148, UniProt P19909 254-299, limits assumed).
T8 construct: domain: GA3
Described as above. Here is the method: as §2, §3

Experiment [9] has as its target T9, ZH 01 as periplasmic ABD fusion AQHDEALE-[ZH 01]-VDYV-[ABD]-YVPG (Streptococcus strain G148, UniProt P19909 254-299, limits assumed).
T9 construct: domain: GA3
The experiment is described as above. On the procedure: as §2, §3

B1: boxA(disulfide), disulfide linked form of A-box domain of HMGB1 (other)
chain: MGKGDPKKPRGKMSSYAFFVQTCREEHKKKHPDASVNFSEFSKKCSERWKTMSAKEKGKFEDMAKADKARYEREMKTYIPPKGETKKKF
modifications: disulfide C23-C45
notes: also called b-boxA(disulfide)
By Kd is commonly meant the equilibrium constant for the complex coming apart. Low readings indicate a tighter complex, high ones a looser complex. With B1, the Kd in experiment [1] is roughly 36 nM; in experiment [2], roughly 44 nM; in [3], roughly 54 nM; in [4] it was roughly 54 nM; in experiment [5], roughly 91 nM; in experiment [6], roughly 47 nM. For the same molecule, the Kd in [7] is roughly 31 nM; in experiment [8] it was roughly 71 nM; in experiment [9] it was roughly 4.7 nM.
